Test: soluble on expression in E. coli; label from the status in PepcDB or PDB records

| Sequence | soluble on expression in E. coli |
| --- | --- |
| MAISRELVDPNSSPREIEVSEPREVGITELVLRDAHQSLMATRMAMEDMVGACADIDAAGYWSVECWGGTTYDSCIRFLNEDPWERLRTFRKLMPNSRLQMLLRGQNLLGYRHYNDEVVDRFVDKSAENGMDVFRVFDAMNDPRNMAHAMAAVKKAGKHAQGTICYTISPVHTVEGYVKLAGQLLDMGADSIALKDMAALLKPQPAYDIIKAIKDTYGQKTQINLHCHSTTGVTEVSLMKAIEAGVDVVDTAISSMSLGPGHNPTESVAEMLEGTGYTTNLDYDRLHKIRDHFKAIRPKYKKFESKTLVDTSIFKSQIPGGMLSNMESQLRAQGAEDKMDEVMAEVPRVRKAAGFPPLVTPSSQIVGTQAVFNVMMGEYKRMTGEFADIMLGYYGASPADRDPKVVKLAEEQSGKKPITQRPADLLPPEWEKQSKEAATLKGFNGTDEDVLTYALFPQVAPVFFEHRAEGPHSVALTDAQLKAEAEGDEKSLAVAGPVTYNVNVGGTVREVTVQQATRASQPELAPEDPEDLEHHHHHH | soluble |
| MAITAKNAQLYGLDLELGLETGLAADVDNDSMSGLVLVELLSPYHQLETRFKLESQTALAFQAMADSAAKDGIKLAICSAYRPFDRQLAIWNAKASGKRVVLDINEQPVDITPLSESELVDLILLWSALPGASRHHWGTDIDVFDAEKIEVKSLRLVEAEYRDGGPCAQLHQWLVANAKDFGFYFPFQRGQSAVSAEPWHISYFPVSQILLPQFEVQALTQIIAHSDMLLKDAVLARLPELVAEYVHRIAQP | soluble |
| MAITVSIELNRDLEIPASYDEVFDLLADVPKSASHFPKVDKLVDLGNNAYRWEMEKVGVDKHAIQSVYACTYHADKEAGKITWSPIKGEGNGVVSGSWTLSAKGDNATAVKFQTSAELTVPLPSLLKLAISPVIKHEFNSLVDTYMANLKKAFLEHHHHHH | soluble |
| MAKEINLTGEEVVALAAKYMNETDAAFVKKALDYATAAHFYQVRKSGEPYIVHPIQVAGILADLHLDAVTVACGFLHDVVEDTDITLDNIEFDFGKDVRDIVDGVTKLGKVEYKSHEEQLAENHRKMLMAMSKDIRVILVKLADRLHNMRTLKHLRKDKQERISRETMEIYAPLAHRLGISRIKWELEDLAFRYLNETEFYKISHMMNEKRREREALVDDIVTKIKSYTTEQGLFGDVYGRPKHIYSIYRKMRDKKKRFDQIFDLIAIRCVMETQSDVYAMVGYIHELWRPMPGRFKDYIAAPKANGYQSIHTTVYGPKGPIEIQIRTKEMHQVAEYGVAAHWAYKKGVRGKVNQAEQKVGMNWIKELVELQDASNGDAVDFVDSLEHHHHHH | soluble |
| MAKFNVENEHVEVEIEKLYKFSPELVYEAWTKKDLLKQWFMTSARTNKEIEADVKEGGKYRIVDQQRNGKVNVIEGIYESLVMDEYVKMTIGMPGLSETQDVIEVEFFERETGGTQMLFYYRSLVEKERRFTNLEYKQKKKEYHDAMVHGFELMFDKMYHVIETSTQQ | soluble |
| MAKKRSKLEIIQAILEACKSGSPKTRIMYGANLSYALTGRYIKMLMDLEIIRQEGKQYMLTKKGEELLEDIRKFNEMRKNMDQLKEKINSVLSIRQ | soluble |
| MAKKTSSKGKLPPGPRPLPLLGNLLQMDRRGLLKSFLRFREKYGDVFTVHLGPRPVVMLCGVEAIREALVDKAEAFSGRGKIAMVDPFFRGYGVIFANGNRWKVLRRFSVTTMRDFGMGKRSVEERIQEEAQCLIEELRKSKGALMDPTFLFQSITANIICSIVFGKRFHYQDQEFLKMLNLFYQTFSLISSVFGQLFELFSGFLKHFPGAHRQVYKNLQEINAYIGHSVEKHRETLDPSAPRDLIDTYLLHMEKEKSNAHSEFSHQNLNLNTLSLFFAGTETTSTTLRYGFLLMLKYPHVAERVYREIEQVIGPHRPPELHDRAKMPYTEAVIYEIQRFSDLLPMGVPHIVTQHTSFRGYIIPKDTEVFLILSTALHDPHYFEKPDAFNPDHFLDANGALKKTEAFIPFSLGKRICLGEGIARAELFLFFTTILQNFSMASPVAPEDIDLTPQECGVGKIPPTYQIRFLPRHHHH | soluble |
| MAKRGRKRKVSKDEENTTPEPEMKKKADEKVVELDEKDWMPSAALEFFENENFKEIVENLSHLDNSVTLVGPFRKLRGESDADGTDLIMLDREMTDLPEMQTFMKCSHGRYAFWRDKPNDKKPVIVFMDLKTIPDLSVVGNEIRHAILDFCTRCSKCIDCSAKSKAANSKIQSFFTPSKISSEVKEVLKHREKTTVRGISGPGMLIDVVPTGNSGKKNKKNERTGYRDLSKNAYCINIEHLVRSLRLCQTKEQEEKVLDFVYGLMNEINICNDEGDFGNGLELGHILFLANMKAVADPMMITLHIAYKNLHRPDFAKILDLTLSLRDQQEEAT | soluble |
| MAKSFNQAASELTDIFPNISLTGFDGVNYPVTVNCPMHGNVRYSTFNALIKSKYGCPECAKMSKTQTPPNVGKPLLILDTTTNETLTFPSVTAAGAALGVHFQQINHRLKGRTSPDNLISNRYKVLGYDR | not soluble |
| MAKSPVEVNLIPIEATPENFAEYGQVIEASRDGAGFGPHDAQLDLSRGTPRLYILRLKETPLGFFKITHHAKVTQCLGSIGGDVWYMGVAKPSLIEDDDDDGRSVDTVKSKSGHLYIPPEVEEIRVFRFSGPKFVKLHRGTWHAGPLFSGSSFMDFYNLELSNTNVSEEWF | soluble |
| MAKSSSLNVRVVEGRALPAKDVSGSSDPYCLVKVDDEVVARTATVWRSLGPFWGEEYTVHLPLDFHQLAFYVLDEDTVGHDDIIGKISLSREAITADPRGIDSWINLSRVDPDAEVQGEICLSVQMLEDGQGRCLRCHVLQARDLAPRDISGTSDPFARVFWGSQSLETSTIKKTRFPHWDEVLELREMPGAPSPLRVELWDWDMVGKNDFLGMVEFSPKTLQQKPPKGWFRLLPFPRAEEDSGGNLGALRVKVRLIEDRVLPSQCYQPLMELLMESVQGPAEEDTASPLALLEELTLGDCRQDLATKLVKLFLGRGLAGHFLDYLTRREVARTMDPNTLFRSNSLASKSMEQFMKLVGMPYLHEVLKPVISRVFEEKKYMELDPCKMDLGRTRRISFKGALSEEQMRETSLGLLTGYLGPIVDAIVGSVGRCPPAMRLAFKQLHRRVEERFPQAEHQQDVKYLAISGFLFLRFFAPAILTPKLFDLRDQHADPQTSRSLLLLAKAVQSIGNLGQQLGQGKELWMAPLHPFLLQCVSRVRDFLDRLVDVDGDEEAGVPARALFPPSAIVREGYLLKRKEEPAGLATRFAFKKRYVWLSGETLSFSKSPEWQMCHSIPVSHIRAVERVDEGAFQLPHVMQVVTQDGTGALHTTYLQCKNVNELNQWLSALRKASAPNPNKLAACHPGAFRSARWTCCLQAERSAAGCSRTHSAVTLGDWSDPLDPDAEAQTVYRQLLLGRDQLRLKLLEDSNMDTTLEADTGACPEVLARQRAATARLLEVLADLDRAHEEFQQQERGKAALGPLGP | soluble |
| MAKTYGLIGLYSRIVNKIEDSKKYLSLAIEMNIQSGNHKSLFVNELRLAHTYQWETNYHKSNKLFKKLKEQSESDTEHSNYLDSVYQHYGKNLFDQSEYQLALKYVKKALRIRVEKGNKELIDSTEYAINICNEKIKQIKEMAGDPLEHHHHHH | not soluble |
| MAKVIFDENRCKGCKLCTTVCPKKIVVMNEDKLNQKGFHPAGVVDMDKCIGCAFCATICPDCVIEVYK | not soluble |
| MAKVVIPNGAEGEEAVYREQVIREYSGNPFIEALPPIYAPEEVVEKLAVYPPYSEEERNLDAHYRIHLTQKLFHCFQPLPQHLDLESRISRVIRQGYLPRNPVSKEYVISLKDGYRAVQNCDINANQQFRSTACGFTIIGVSGMGKSVSINRVLSMYPQVIVHSRYKGQGFSFYQLVWLKLDTPFDGSVKGLCIDFFNKVDQLMGTDFYKKVANSRKSVDYMLTLMCQVVRNTGLGLLIIDEVQHLCGARGLGDERMLNFFVTLVNTAGVPIILIATPKAMSILQSEFRQARRGSGQGDMVWERLQYDENFEILLDSLWQYQWTRKESILTKSMRELLYEESQGIIDIICKIIVMAQTIAISTGKEQVDEKLIQQVAREHLQLVRPMILALKSGNIREIAKYSDICTAEIDYGKLVNQEKLPVEMRMRIRAIKEQKEKREKENKTSKMEQALYKLAELGIDVAKARKAVEAVFEAEGHNIDEGQLVIKAIQVLSGNTTEKKSKKVKTTPKSENDLRYIVEEGRNQGKSAYDALKDKGYIKGEKNDTLFKAV | not soluble |
